As usually defined, the Km is the concentration of substrate that gives half-maximal velocity. Broadly, the kcat is the number of substrate molecules converted per active site and unit of time at saturation.

One series concerns the target T1, ctPrp43 (Thermochaetoides thermophila, UniProt G0RY84).
T1 construct: gene CTHT_0005780; truncated, residues 61-764; GST fusion, tag cleaved by TEV; E. coli Rosetta 2 (DE3); no G-patch protein
The experiment in a line: NADH-coupled ATPase assay (pyruvate kinase / lactate dehydrogenase), […] nm. The format is biochemical. The following applies: no RNA; no G-patch protein; 25 mM Bis-Tris propane pH 7.5, 150 mM KCl, 3 mM MgCl2, 25 °C; 5 uM enzyme; ATP 0-2 mM.

Substrate in the series “purified protein”: Nc1ncnc2c1ncn2[C@@H]1O[C@H](COP(=O)(O)OP(=O)(O)OP(=O)(O)O)[C@@H](O)[C@H]1O
The experiment in a line: purified protein. Type of series: biochemical, Thermochaetoides thermophila. Conditions: no RNA, 25 mM Bis-Tris propane pH 7.5, 150 mM KCl, 3 mM MgCl2, 25 °C, 0.4 uM enzyme, ATP 0-2 mM.

Substitutions are numbered along the chain they refer to. Numbers in names are those of the source.

T1 sequence (G0RY84 entry or part of it): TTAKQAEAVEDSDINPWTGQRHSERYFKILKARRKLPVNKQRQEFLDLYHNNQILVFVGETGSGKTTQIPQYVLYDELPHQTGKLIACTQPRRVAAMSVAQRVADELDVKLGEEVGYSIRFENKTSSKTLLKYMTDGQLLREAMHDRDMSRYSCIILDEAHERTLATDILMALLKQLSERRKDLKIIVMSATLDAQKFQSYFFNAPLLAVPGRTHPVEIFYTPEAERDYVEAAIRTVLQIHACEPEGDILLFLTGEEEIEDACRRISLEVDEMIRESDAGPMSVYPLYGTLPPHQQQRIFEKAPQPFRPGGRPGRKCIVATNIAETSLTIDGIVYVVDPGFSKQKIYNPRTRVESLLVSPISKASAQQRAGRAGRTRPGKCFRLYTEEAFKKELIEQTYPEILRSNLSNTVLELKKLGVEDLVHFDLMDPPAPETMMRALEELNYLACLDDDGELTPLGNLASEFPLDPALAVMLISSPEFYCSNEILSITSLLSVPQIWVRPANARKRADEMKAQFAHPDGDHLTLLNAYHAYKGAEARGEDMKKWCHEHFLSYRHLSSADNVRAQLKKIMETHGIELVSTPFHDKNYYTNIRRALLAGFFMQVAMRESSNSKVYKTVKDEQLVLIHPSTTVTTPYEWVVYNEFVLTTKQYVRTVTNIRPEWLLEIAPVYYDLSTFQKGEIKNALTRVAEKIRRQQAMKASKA

With `Nc1ncnc2c1ncn2[C@@H]1O[C@H](COP(=O)(O)OP(=O)(O)OP(=O)(O)O)[C@@H](O)[C@H]1O` [ATP], the Km at ctPrp43 worked out at 21.1 ± 3.88 µM.

B1: ctPrp22 (Thermochaetoides thermophila DSM 1495) (protein)
chain: TNMSIKEQRESLPVFQFRDQIIQAVKDNQILIVVGETGSGKTTQVTQYLAEAGFTKYGMIGCTQPRRVAAVSVAKRVAEEVGCQLGQEVGYTIRFEDVTSPATKIKYMTDGMLQREILMDPDLKRYSVIMLDEAHERTIATDVLFALLKKTVKRRPDLKVIVTSATLDAEKFSEYFNSCPIFTIPGRTFPVEILYSREPEPDYLEAALTTVMQIHLTEPPGDILVFLTGQEEIDTACEILYERMKALGPSVPELIILPIYSALPSEMQSRIFEPAPPGSRKVVIATNIAETSITIDYIYYVVDPGFVKQNAYDPKLGMDSLVVTPISQAQANQRAGRAGRTGPGKCFRLYTEAAYQSEMLPTTIPDIQRQNLANTILLLKAMGINDLLRFDFMDPPPVNTMLTALEELYALGALDDEGLLTRLGRKMADFPMEPSLSKVLIASVDKGCSDEMVTIVSMLNLQQIFYRPKDKQQQADQKKAKFHDPTGDHLTLLNVYNAWKNSGYSNAWCFENYIQARAMRRARDVRQQIVKIMERHRHPIISCGRDTDKIRQALCAGFFRNTARKDPQEGYKTLTEGTPVYLHPSSALFGKQAEWVLYHELVLTTKEYMHFTTAIEPKWLVEAAPTFFKLAPTDRLSKRKKAERIQPLYNKYEGEDGWRLSAQRRAARPGGGGGTWG
notes: N-terminally truncated, lacks first 545 residues (S1 motif omitted); GST fusion from pGEX-6p1, tag cleaved by TEV; E. coli Rosetta 2 (DE3)
In the case of B1, in the series “purified protein”, the Km came out at 34.53 ± 1.74 µM and the kcat came out at 0.559 ± 0.00483 s⁻¹.

B2: ctPrp22 (Thermochaetoides thermophila DSM 1495; S837A) (protein)
chain: B1 chain with S292A
notes: as for B1
As for B2, in the series “purified protein”, the Km is 33.15 ± 2.24 µM and the kcat amounted to 0.8948 ± 0.0107 s⁻¹.

B3: ctPrp22 (Thermochaetoides thermophila DSM 1495; S837G) (protein)
chain: B1 chain with S292G
notes: as for B1
As to B3, in “purified protein”, the Km came to 24.79 ± 0.93 µM and the kcat stood at 0.9228 ± 0.00583 s⁻¹.

Values taken from publication PMC6486627, “Structural basis for RNA translocation by DEAH-box ATPases” (Nucleic Acids Research, 2019).
